Entries after “also recorded” stand apart in the source; their conditions may differ. Where no end group is shown, it is not given here. [ ]: non-standard residue; d: D form.
Tests used:
Aβ (1-40) [1] = target: T1, Aβ (1-40) (Homo sapiens, UniProt P05067); assay: Photoinduced cross-linking (PICUP) of Aβ and peptides; assay type: binding; conditions: for interaction with Aβ (shift in cross-linked Aβ size distribution): pre-aggregated Aβ, 10:1 molar excess of Aβ, Western blot 4G8
T1 construct: Aβ (1-40) was purchased from Anaspec, Inc. (Fremont, Calif.) as lyophilized powder; purchased Anaspec, Inc. (Fremont, Calif.)
Experimental: (§1) Aβ (1-40) was purchased from Anaspec, Inc. (Fremont, Calif.) as lyophilized powder. For dynamic light scattering, ThT fluorescence assay, TEM, NTA measurement and filtration/sedimentation assay, Aβ was dissolved in 50% ACN, re-lyophilized, and reconstituted in 8M urea at 12 mg/mL. Aβ stock was then aliquoted, snap-frozen in ethanol with dry ice, and stored at −80° C. For PICUP and proteolytic fragmentation analysis, lyophilized Aβ was dissolved in prechilled hexafluoroisopropanol (HFIP, Acros Organics, Geel, Belgium), aliquoted, dried and stored at −20° C. as previously described (Cho et al., 2014). Aβ sample was prepared right before use by dissolving dried peptides in 50 mM NaOH and diluting into phosphate-buffered saline (PBSA) (10 mM Na2HPO4/NaH2PO4, 150 mM NaCL and 0.02% NaN3 (pH 7.4)) to 30 μM as previously described (Cho et al., 2014).
Aβ prepared with HFIP/NaOH treatment at 30 μM as described was mixed with peptides to a final concentration of 24 μM Aβ and 2.4 μM peptides. Aβ stock was used immediately (freshly prepared) or after incubation for 24 hr at 37° C. (1 day pre-aggregated). Samples of Aβ with and without peptides were incubated for 1 hr at 37° C. and cross-linked by photo-induced cross-linking method as previously described (Cho et al., 2014). Cross-linked samples were then separated on a 10-20% Tris-Tricine gradient gel (Iinvotrogen, Carlsbad, Calif.), transferred onto a 0.2 μm poly(vinylidene difluoride) (PVDF) membrane and detected by monoclonal mouse anti-Aβ antibody 4G8 (Covance, Princeton, N.J.) as previously described (Cho et al., 2014).

Aβ (1-40) [2] = target: T1, Aβ (1-40); assay: Dynamic light scattering of Aβ aggregate growth; assay type: biochemical; conditions: 140 μM Aβ
Experimental: as §1
Aβ stock in 8M urea prepared as stated above was thawed and sonicated for 2 min before being diluted into PBSA. Aβ alone (140 μM) or mixed with peptides (14 μM) was filtered through […] filter directly into a light scattering cuvette and placed into a bath of the index-matching solvent decahydronaphthalene with temperature controlled to 37° C. Light scattering data were collected using a Brookhaven BI-200SM system (Brookhaven Instruments Corp., Holtsville, N.Y.) and an Innova 90C-5 argon laser (Coherent, Santa Clara, Calif.) operating at 488 nm and 150 mW. The average scattering intensity at 90° was measured over 10 hr and data were normalized to the total mass concentration. The z-averaged hydrodynamic diameter was determined from the autocorrelation function using the method of cummulants.

[3] = system: primary cortical neuronal cells; assay: In vitro cellular toxicity of Aβ (1-42), MTS assay; assay type: cell-based, mice; conditions: for protection against Aβ toxicity: 10 μM Aβ
Experimental: Aβ toxicity was assessed as described in detail previously (Yang et al., 2013; Cho et al., 2014). Briefly, the primary cortical neuronal cells were cultured from embryonic 15.5 day mice and were maintained in neurobasal media till they are matured. Aβ (1-42) (American Peptide, Sunnyvale, Calif.) at 1 mg/mL in PBS was diluted to 10 μM without or with peptides as previously described (Cho et al., 2014). At 6 days in vitro (DIV), the cells were treated with either Aβ alone or Aβ incubated with different doses of mTTR and peptides. Appropriate vehicle and controls were run along with the treatments. At 8 DIV, the neurons were incubated with MTS reagent (Promega) as per manufacturer protocol for 2-3 hrs and absorbance was measured at 490 nm.

[4] = Peptide self-association by PICUP cross-linking and gel electrophoresis; assay type: physicochemical; conditions: PICUP cross-linking, gel electrophoresis
Experimental: Peptides were also cross-linked by PICUP and analyzed for self-association. Twenty microliters of peptides at 36 μM in PBSA was incubated for 1 hr at 37° C. and cross-linked. Cross-linked samples were then heated at 95° C. for 5 min and separated on a 10-20% Tris-Tricine gradient gel. Peptides were visualized by silver staining (SilverStain Kit, Pierce, Rockford, Ill.).

Aβ (1-40) [5] = target: T1, Aβ (1-40); assay: Proteolytic fragmentation assay of Aβ with peptides (Proteinase K); assay type: binding; conditions: 3:1 molar excess of peptides, detection by 4G8
Experimental: as §1
The proteolytic fragmentation assay of Aβ with peptides was performed as previously described in detail (Cho et al., 2014). Briefly, Aβ alone (20 μM) or with peptide (60 μM) was incubated for 24 hr at 37° C. Proteinase K (Promega, Madison, Wis.) was added to the samples at a final concentration of 0.5 μg/mL and samples were dotted onto a 0.45 μm nitrocellulose membrane (Pierce) after incubation for 0, 5, 10, 20, 30, 40, 50, 60, 90 and 120 min. Membranes were then reacted with monoclonal antibodies against Aβ (6E10, Covance, against Aβ (3-8) and 4G8 against Aβ (18-22)) and visualized.

Aβ (1-40) [6] = target: T1, Aβ (1-40); assay: Thioflavin T (ThT) fluorescence assay of Aβ aggregation; assay type: biochemical; conditions: 28 μM Aβ; for inhibition of ThT fluorescence increase: up to 48 h, 2.8 μM peptide or mTTR; for ThT fluorescence intensity of Aβ with peptide: 2.8 μM peptide
Experimental: as §1
ThT stock solutions were prepared in PBSA and filtered through 0.22 μm filter. The concentration of ThT was measured using an extinction coefficient of 26,620 M^−1 cm^−1 at 416 nm and the stock solution was diluted to 10 μM in PBSA prior to the measurement. Aβ alone (28 μM) and with peptides (2.8 μM) or mTTR (2.8 μM) were prepared in PBSA and incubated for 48 hr at 37° C. After 1, 5, 24 and 48 hr of incubation, 10 μL of each sample was mixed with 130 μL of 10 μM ThT and analyzed. ThT fluorescence emission was measured using a QuantaMaster spectrofluometer (PTI, Birmingham, N.J.), with excitation at 440 nm and emission spectra recorded from 460 to 500 nm. Three serial spectra were averaged for each sample and the background signal of ThT in PBSA was subtracted from the averaged data. Fluorescence intensity at a wavelength of 480 nm was compared.

[7] = Peptide self-aggregation by light scattering; assay type: physicochemical; conditions: 80 μM, 37° C., after 1 hr of incubation
Experimental: To further probe for self-aggregation, G16, LG3, and CG3 were incubated at 80 μM at 37° C. and analyzed by light scattering.

Aβ (1-40) [8] = target: T1, Aβ (1-40); assay: Filtration/sedimentation assay of Aβ aggregation; assay type: biochemical
Experimental: as §1
Aβ alone (30 μM) or with CG3 (3 μM) was prepared in PBSA and incubated for 24 hr at 37° C. For filtration, 175 μL of sample was filtered through 0.45 μm filter. For sedimentation, 100 μL of sample was transferred onto a separate tube and centrifuged for 30 min at 19,500 ref. The supernatant (80%) was removed. Concentrations of untreated, filtered, and centrifuged samples were measured by BCA assay (Pierce).

Aβ (1-40) [9] = target: T1, Aβ (1-40); assay: Transmission electron microscopy of Aβ aggregates; assay type: biochemical; conditions: 48 h at 37° C., 28 μM Aβ, 2.8 μM peptide
Experimental: as §1
Aβ alone (28 μM) or with peptides (G16 or CG3 at 2.8 μM) were prepared in PBSA and incubated for 48 hr at 37° C. A drop of sample was placed on a pioloform-coated grid and stained with methylamine tungstate stain. Images were taken with a Philips CM120 scanning transmission electron microscope (FEI Corp., Eindhoven, The Netherlands).

Aβ toxicity = conditions: cited from earlier work

Substance | interaction with Aβ (shift in cross-linked Aβ size distribution) (Aβ (1-40) [1]) | effect on Aβ aggregation (hydrodynamic diameter, total scattered intensity) (Aβ (1-40) [2]; 14 μM peptide) | inhibition of Aβ toxicity (summary) [3] | self-association by PICUP [4] | effect on Aβ degradation by protease (Aβ (1-40) [5]) | inhibition of ThT fluorescence increase (Aβ (1-40) [6]) | protection against Aβ toxicity ([3]; 10 μM peptide) | light scattering of peptide alone [7] | other results
SKV^DPPTIAALLSPYSYSQ [LG2] (SKV[dP]PTIAALLSPYSYSQ) [non-cyclized 18-mer, TTR residues 106-121 grafted onto DPro-Pro template] | do not show signs of interaction with Aβ | nor did they affect Aβ aggregation | nor did they affect Aβ aggregation or inhibit Aβ toxicity | oligomer distribution was shifted towards lower molecular weight | – | – | – | – | –
SKVVT^DPPRYTIAALLSPYSYSQ [LG3] (SKVVT[dP]PRYTIAALLSPYSYSQ) [non-cyclized 22-mer, TTR residues 104-123 grafted onto DPro-Pro template] | interact with Aβ; also recorded: weaker compared to CG3 | little to no effect on Aβ aggregation | – | – | Aβ degradation was delayed | unable to inhibit the ThT fluorescence increase | no protective effect | did not scatter light above background | –
PRRYTIAALLSPYSWSDYKDDDDK [GF, linear peptide G16 with a C-terminal FLAG tag] | interact with Aβ | little to no effect on Aβ aggregation | – | some lower-molecular-weight multimers but none of the larger multimers | Aβ degradation was delayed | unable to inhibit the ThT fluorescence increase | no protective effect | – | protection against Aβ toxicity ([3]; highest dose (40 μM)): modest protection
PRRYTIAALLSPYSWS [G16, 16-mer linear peptide, TTR residues 102-117, Y116W, reference compound] | interact with Aβ | increased the size of aggregates of Aβ | – | – | Aβ degradation was delayed; also recorded: most effective in inhibiting degradation | – | – | scattered light above background | interaction with freshly prepared versus pre-aggregated Aβ (Aβ (1-40) [1]; freshly prepared or 1 day pre-aggregated Aβ): showed no such selectivity; intensity of scattered light of Aβ-peptide mixture (Aβ (1-40) [2]; 14 μM peptide): enhanced the intensity of scattered light similarly; mean hydrodynamic size of Aβ-peptide mixture (Aβ (1-40) [2]; after 5 hr, 10:1 molar excess of Aβ, 37° C.): about 120 nm; effect on fraction of Aβ aggregates removable by filtration or sedimentation (Aβ (1-40) [8]): reduce the fraction of Aβ aggregates that can be removed by filtration or sedimentation; ThT fluorescence intensity of Aβ with peptide (Aβ (1-40) [6]; after 5 hr): remained low; ThT fluorescence intensity of Aβ with peptide (Aβ (1-40) [6]; after 24 hr): ThT-positive species were detected; morphology of Aβ aggregates by TEM (Aβ (1-40) [9]): still a large number of fibrils; protection against Aβ toxicity ([3]; highest dose tested): small but significant protection; fold less effective than full-length TTR at protecting cells from Aβ toxicity (Aβ toxicity): about 25 fold
SKVVTPPRYTIAKLLSPYSYSQ (not fully specified; also: cyclic (type not given here)) [SEQ ID NO: 17] | – | – | – | significantly less self-association than SEQ ID NO: 1 | – | – | – | – | –
SKV^DPPTIAALLSPYSYSQ [CG2] (cyclo(SKV[dP]PTIAALLSPYSYSQ)) [cyclic 18-mer of TTR residues 106-121 grafted onto DPro-Pro template] | do not show signs of interaction with Aβ | did not affect Aβ aggregation; also recorded: nor did they affect Aβ aggregation | nor did they affect Aβ aggregation or inhibit Aβ toxicity | – | did not have any effect on the time course of degradation | – | no protective effect | – | –

Reference: US9809627B2, “Cyclized transthyretin peptide and methods of use therefor” (Wisconsin Alumni Research Foundation, priority 2014, dated 2017)
